Measured values taken from patent US20230303681A1 (published 2023).
Several values for one entry are separate records, joined by “and”; a condition that tells them apart may be missing. Equal values may be shown once. Read-outs that look alike come from different tables or passages of the source.

B1: anti-TMEM106B antibody TM-2 (antibody, V domains shown)
VH: HIQLVQSGPELKKPGETVKISCKASGYTFTEYPMHWVKQAPGKGFRWMGMIYTNTGEPTYAAEFKGRFAFSLETSASTGYLQINNLKNEDSATYFCVTAGYWGQGTLVTVSA
VL: QIVLTQSPAILSASPGEKVTMTCRASSSVSYIHWFLQKPGSSPKPWIYATSNLASGVPFRFIGSGSGTSYSLTISGVEAEDSATYYCQQWSSNPSTFGAGTKLELK
B2: anti-TMEM106B antibody TM-4 (antibody, V domains shown)
VH: EVQVQQSGPVLVKPGASVKMSCKASGYTFTDYYMNWVKQSHGKNLEWIGVINPYNGGTSYHQKFKGKATLTVDKSSSTAYMELNSLTSEDSAVYYCARAATVVAGFDYWGQGTTLTVSS
VL: QAVVTQESALTTSPGETVTLTCRSSTGAVTTSNYANWVQEKPDHLFTGLIGGTNNRAPGVPARFSGSLIGDKAALTITGAQTEDEAIYFCVLWYSNHLVFGGGTKLTVL

Experiments:
[1] = molecular target: T1, GST-fusion human TMEM106B truncated (human); test: array SPR, Ab immobilised;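 for koff: antibodies amine-coupled on an MX-96 chip, antigen flowed at 500 nM top concentration in 5-fold serial dilutions, GST alone run as nonspecific-binding control, duplicate measurements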;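 for kon: antibodies amine-coupled on an MX-96 chip, antigen flowed at 500 nM top concentration in 5-fold serial dilutions, GST alone run as nonspecific-binding control, duplicate measurements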
T1 construct: also called GST-TMEM106B-truncated protein; GST-TMEM106B (truncated)
Procedure: Binding kinetic characterization of the purified antibodies was performed by Carterra using a proprietary array SPR instrument (MX-96) as follows. Briefly, antibodies were prepared by diluting to 5 µg/ml in 10 mM Acetate, pH 4.5 (Carterra), at 150 µL/well and then made an additional dilution at 1:10 from there by titrating 11 µl into 100 µL. […] The chip was activated with 18 mM EDC (Sigma Bioxtra) and 4.5 mM S-NHS (Thermo Fisher) diluted in 100 mM MES, pH 5.5, for 7 minutes, and then antibodies were coupled for 10 minutes at 45 µL/minute. After coupling, the chip was returned to the MX-96 and quenched for 7 minutes using 1 M Ethanolamine pH 8.5 (Carterra).
Printed antibodies were profiled for their ability to bind GST-TMEM106B (truncated) protein (described above). Briefly, GST-TMEM106B (truncated) antigen was diluted to 18 µg/ml (500 nM of 36 kDa fusion protein) by mixing 2.7 µL of 2.0 mg/ml antigen into 298 µL Running buffer (HBS-EP+, Teknova with 1 mg/ml BSA, Sigma), and titrated 50 µl into 200 µl for 5-fold serial dilutions. In addition, binding to GST (Pierce) was assayed under the same conditions to determine the extent of any nonspecific binding of the anti-TMEM106B antibodies to GST portion of the TMEM106B-GST fusion protein. Duplicate measurements for each anti-TMEM106B antibody were taken to ensure reproducibility.

GST (Pierce) = molecular target: T2, GST (Pierce) (UniProt P08515 1-218 = GST, limits assumed); test: ELISA, coated GST;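 note: ELISA on plates coated with GST alone at 1-10 µg/ml, antibodies applied at 100-1000x dilution, bound antibody detected by peroxidase substrate colour after acid stop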
T2 construct: control for the GST part of the fusion protein; also called GST protein; Glutathione-S-transferase

human TMEM106B [2] = molecular target: T3, human TMEM106B (human, UniProt Q9NUM4 2-274); test: FACS, HEK293 transfectants;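 for fold over negative controls: hybridoma supernatants incubated 30 min on ice with human TMEM106B-expressing HEK293 cells, binding read as anti-mouse-APC median fluorescence on live cells, relative to secondary-antibody-only wells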;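 for fold-change over parental HEK293: flow cytometry binding of hybridoma supernatants to HEK293 cells transiently expressing human, cyno or mouse TMEM106B, read as anti-mouse-APC median fluorescence, live cells only, 30 min on ice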
T3 construct: Full-length, on transiently transfected HEK293 cells, or natively expressed on HeLa, U251 and A549 cells; also called huTMEM106B; huTMEM

human TMEM106B [3] = molecular target: T3, human TMEM106B; test: FACS HEK+huTMEM, 0.01 ug/ml
Procedure: (§1) Purified anti-TMEM106B antibodies were evaluated for their binding affinity to various TMEM106B-expressing cell lines including HEK293 transiently transfected with human/cyno/mouse TMEM106B, as well as HeLa cells and A549 cells. Antibodies tested for this experiment were mouse IgGs purified from hybridoma supernatant. Affinity binding to cells was determined as follows. Briefly, 1x10^5 cells were aliquoted per well in 96-well round bottom plates and incubated with 50 µL of purified anti-TMEM106B antibody at various concentrations (10x dilutions starting at 10 µg/ml) in FACS buffer (PBS + 2% FBS + 1 mM EDTA). […] Sorting was performed on a iQue (Intellicyt), with sort gates drawn to exclude dead (propidium iodide +) cells. Binding data was analyzed using median fluorescent intensity (MFI) and graphed in Prism. Values presented are MFI.

human TMEM106B [4] = molecular target: T3, human TMEM106B; test: FACS A549, 1 ug/ml
Procedure: as §1

human TMEM106B [5] = molecular target: T3, human TMEM106B; test: FACS HEK+huTMEM, 10 ug/ml;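 note: purified mouse IgG antibodies at 10 µg/ml bound to HEK293 cells transiently expressing human TMEM106B, measured by flow cytometry as median fluorescence intensity of propidium iodide negative live cells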
Procedure: as §1

[6] = molecular target: T1, GST-fusion human TMEM106B truncated; test: array SPR, Ab immobilised; remark: listed apart in the source;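 for koff: antibodies amine-coupled on an MX-96 chip, antigen flowed at 500 nM top concentration in 5-fold serial dilutions, GST alone run as nonspecific-binding control, duplicate measurements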;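 for kon: antibodies amine-coupled on an MX-96 chip, antigen flowed at 500 nM top concentration in 5-fold serial dilutions, GST alone run as nonspecific-binding control, duplicate measurements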
mouse TMEM106B [7] = molecular target: T4, mouse TMEM106B (mouse, UniProt Q80X71 2-275); test: FACS Neuro2a;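 note: flow cytometry of cells stained with antibody or hybridoma supernatant (purified antibody at 10 µg/ml) for 1 h on ice, propidium iodide–positive dead cells gated out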
T4 construct: on transiently transfected HEK293 cells, or natively expressed on mouse Neuro2a cells; also called moTMEM106B; murine TMEM106B
Procedure: All cells were cultured in either T75 or T150 flasks. […] The enzyme was quenched by addition of fresh media, and the cells were then distributed into 96-well plates for FACS analysis.
FACS analysis was performed as follows. Each cell type was aliquoted in 96-well round bottom plates (2x10^5 cells per well), washed once with FACS buffer (PBS + 2% FBS + 1 mM EDTA), and incubated with 50 µL of hybridoma supernatant or purified antibody (10 µg/ml in FACS buffer) on ice for 1 hour. […] Following this secondary incubation, the cells were again washed 2x with ice-cold FACS buffer and resuspended in a final volume of 50 µL of FACS buffer + 0.25 µl/well propidium iodide (Fisher Scientific # BDB556463). Analysis was performed on a FACSCanto system (BD Biosciences) or iQue (Intellicyt), with sort gates drawn to exclude dead (i.e., propidium iodide positive) cells.
Data is presented as mean fluorescence intensity (MFI).

human TMEM106B [8] = molecular target: T3, human TMEM106B; test: FACS U251;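 note: flow cytometry of cells exposed to antibody (purified at 10 µg/mL, or hybridoma supernatant) for 1 h on ice, with propidium iodide-positive dead cells gated out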
[9] = molecular target: T5, cynomolgus (cyno) TMEM106B (cynomolgus, UniProt Q9NUM4 2-274 (human entry)); test: FACS, HEK293 transfectants;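 note: flow cytometry binding of hybridoma supernatants to HEK293 cells transiently expressing human, cyno or mouse TMEM106B, read as anti-mouse-APC median fluorescence, live cells only, 30 min on ice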
T5 construct: on transiently transfected HEK293 cells

human TMEM106B [10] = molecular target: T3, human TMEM106B; test: FACS, HEK293 transfectants; remark: listed apart in the source;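 for fold over negative controls: hybridoma supernatants incubated 30 min on ice with human TMEM106B-expressing HEK293 cells, binding read as anti-mouse-APC median fluorescence on live cells, relative to secondary-antibody-only wells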;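 for fold-change over parental HEK293: flow cytometry binding of hybridoma supernatants to HEK293 cells transiently expressing human, cyno or mouse TMEM106B, read as anti-mouse-APC median fluorescence, live cells only, 30 min on ice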
mouse TMEM106B [11] = molecular target: T4, mouse TMEM106B; test: FACS, HEK293 transfectants;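 note: flow cytometry binding of hybridoma supernatants to HEK293 cells transiently expressing human, cyno or mouse TMEM106B, read as anti-mouse-APC median fluorescence, live cells only, 30 min on ice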
human TMEM106B [12] = molecular target: T3, human TMEM106B; test: FACS A549, 10 ug/ml
human TMEM106B [13] = molecular target: T3, human TMEM106B; test: FACS HEK+huTMEM, 1.0 ug/ml
human TMEM106B [14] = molecular target: T3, human TMEM106B; test: FACS A549
human TMEM106B [15] = molecular target: T3, human TMEM106B; test: FACS HEK+huTMEM, 0.1 ug/ml;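 note: flow cytometry binding of purified mouse IgG antibodies to HEK293 cells transiently expressing TMEM106B, read as median fluorescence intensity with propidium iodide positive dead cells gated out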
human TMEM106B [16] = molecular target: T3, human TMEM106B; test: FACS HeLa;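 note: flow cytometry of cells incubated with hybridoma supernatant or purified antibody at 10 µg/ml for 1 h on ice, propidium iodide–positive dead cells gated out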
[17] = molecular target: T1, GST-fusion human TMEM106B truncated; test: ELISA, supernatant 100-1000x
Procedure: Briefly, 96-well polystyrene plates were coated with 1-10 µg/ml of recombinant GST-TMEM106B-truncated protein or GST (Pierce) in PBS either at 370 Cfor 1-4 hours or overnight at 4 °C. Coated plates were then blocked with 5% BSA for 1-hour, washed 3×150 µL in TBST (Tris-buffered saline + 0.1% Tween20), and then the antibodies were added at various dilutions (100-1000x) in PBS. After 1-hour incubation (room temperature, with shaking), the plates were washed 3x150 µL in TBST. […] After a final set of washes (3×150µL in TBST), 100 µL of peroxidase substrate was added for 1 minute; the reaction was then quenched with 2N sulfuric acid (100 µL).

Binder | Kd [1] | koff [1] | kon [1] | binding result (GST (Pierce)) | fold over negative controls (human TMEM106B [2]) [fold] | MFI (human TMEM106B [3]) | MFI (human TMEM106B [4]) | MFI (human TMEM106B [5]) | Kd [6] [nM] | MFI (mouse TMEM106B [7]) | MFI (human TMEM106B [8]) | fold-change over parental HEK293 [9] [fold] | fold-change over parental HEK293 (human TMEM106B [10]) [fold] | fold-change over parental HEK293 (mouse TMEM106B [11]) [fold] | MFI (human TMEM106B [12]) | MFI (human TMEM106B [13]) | MFI (human TMEM106B [14]) | MFI (human TMEM106B [15]) | MFI (human TMEM106B [16]) | binding result [17]
B1 | 0.9 nM and 1.2 nM | 1.1e-05 s⁻¹ and 1e-05 s⁻¹ | 12000 M⁻¹ s⁻¹ and 8300 M⁻¹ s⁻¹ | no binding | > 2 | 1440 | 1090 | 55500 | ~1 | 2900 | 1410 | 32.3 | 9.84 | 17.5 | 3360 | 29300 | 1890 | 4730 | 2530 | –
B2 | – | – | – | no binding | > 2 | 282 | 373 | 846 | – | – | 349 | 2.08 | 1.13 | – | 443 | 415 | 916 | 304 | 323 | no binding
